B1: E. coli methionine S-adenosyltransferase (MAT), recombinant (enzyme)
chain: AKHLFTSESVSEGHPDKIADQISDAVLDAILEQDPKARVACETYVKTGMVLVGGEITTSAWVDIEEITRNTVREIGYVHSDMGFDANSCAVLSAIGKQSPDINQGVDRADPLEQGAGDQGLMFGYATNETDVLMPAPITYAHRLVQRQAEVRKNGTLPWLRPDAKSQVTFQYDDGKIVGIDAVVLSTQHSEEIDQKSLQEAVMEEIIKPILPAEWLTSATKFFINPTGRFVIGGPMGDCGLTGRKIIVDTYGGMARHGGGAFSGKDPSKVDRSAAYAARYVAKNIVAAGLADRCEIQVSYAIGVAEPTSIMVETFGTEKVPSEQLTLLVREFFDLRPYGLIQMLDLLHPIYKETAAYGHFGREHFPWEKTDKAQLLRDAAGLK

Assays:
cryo-EM structure = biological target: the molecule itself; assay: cryo-EM structure
[1] = biological target: B1; assay: cryo-EM structure

## B1
cryo-EM structure
  stoichiometry N: 4

B2: S-adenosylmethionine lyase (SAMase) of bacteriophage T3, C-terminal His-tagged (enzyme, UniProt P07693 1-152, looked up)
chain: MIFTKEPAHVFYVLVSAFRSNLCDEVNMSRHRHMVSTLRAAPGLYGSVESTDLTGCYREAISSAPTEEKTVRVRCKDKAQALNVARLACNEWEQDCVLVYKSQTHTAGLVYAKGIDGYKAERLPGSFQEVPKGAPLQGCFTIDEFGRRWQVQ
[1]
  binding result: binds
cryo-EM structure
  stoichiometry N: 2
